# B1: GST-SIAH2 (enzyme, human, UniProt O43255 1-324, looked up)
# chain: MSRPSSTGPSANKPCSKQPPPQPQHTPSPAAPPAAATISAAGPGSSAVPAAAAVISGPGGGGGAGPVSPQHHELTSLFECPVCFDYVLPPILQCQAGHLVCNQCRQKLSCCPTCRGALTPSIRNLAMEKVASAVLFPCKYATTGCSLTLHHTEKPEHEDICEYRPYSCPCPGASCKWQGSLEAVMSHLMHAHKSITTLQGEDIVFLATDINLPGAVDWVMMQSCFGHHFMLVLEKQEKYEGHQQFFAIVLLIGTRKQAENFAYRLELNGNRRRLTWEATPRSIHDGVAAAIMNSDCLVFDTAIAHLFADNGNLGINVTISTCCP
# notes: E3 ubiquitin ligase SIAH2, human, wild type; also called GST-tagged SIAH2; purified glutathione S-transferase (GST) SIAH2; source: E. coli BL21, purified
# Assays:
# His-DBC1 = biological target: T1, His-DBC1 (human, UniProt Q8N163 1-923); experiment: pull-down; GST-SIAH2 and His-DBC1 proteins from E. coli incubated in vitro overnight, GST beads for 2 hr at 4°C; blotted with an anti-DBC1 antibody; details: both partners purified
# T1 construct: Deleted in breast cancer 1 (DBC1, CCAR2), human; also called His-tagged DBC1; source: E. coli BL21, purified
# T1 sequence (Q8N163 whole entry): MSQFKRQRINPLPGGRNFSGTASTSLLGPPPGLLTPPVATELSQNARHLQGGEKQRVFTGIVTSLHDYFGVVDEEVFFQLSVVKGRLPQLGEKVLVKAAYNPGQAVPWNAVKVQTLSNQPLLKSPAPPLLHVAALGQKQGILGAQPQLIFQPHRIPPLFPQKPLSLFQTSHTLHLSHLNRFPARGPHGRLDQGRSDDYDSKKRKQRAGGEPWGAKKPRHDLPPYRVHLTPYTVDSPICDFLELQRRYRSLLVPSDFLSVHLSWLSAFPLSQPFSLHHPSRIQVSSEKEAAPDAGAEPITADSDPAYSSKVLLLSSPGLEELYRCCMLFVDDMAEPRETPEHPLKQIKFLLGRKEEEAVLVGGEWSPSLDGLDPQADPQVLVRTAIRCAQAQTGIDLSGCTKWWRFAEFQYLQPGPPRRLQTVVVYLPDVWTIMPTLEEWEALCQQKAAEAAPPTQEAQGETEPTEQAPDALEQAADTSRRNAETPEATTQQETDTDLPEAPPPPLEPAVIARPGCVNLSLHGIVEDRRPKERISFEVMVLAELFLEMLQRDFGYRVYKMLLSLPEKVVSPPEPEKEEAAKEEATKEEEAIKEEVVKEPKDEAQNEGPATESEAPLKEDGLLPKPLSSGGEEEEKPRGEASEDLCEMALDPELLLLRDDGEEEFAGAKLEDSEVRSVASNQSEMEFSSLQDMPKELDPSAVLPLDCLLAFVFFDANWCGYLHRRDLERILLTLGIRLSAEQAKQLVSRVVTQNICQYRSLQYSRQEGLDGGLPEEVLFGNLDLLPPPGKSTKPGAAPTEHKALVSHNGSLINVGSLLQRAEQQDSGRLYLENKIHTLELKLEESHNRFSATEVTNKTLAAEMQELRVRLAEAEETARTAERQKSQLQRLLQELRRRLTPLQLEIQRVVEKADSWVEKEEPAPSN
# [1] = biological target: T2, N-terminal half of His-DBC1 (1–461) (human, UniProt Q8N163 1-461); experiment: as above; details: both partners purified
# T2 construct: source: bacterially expressed (E. coli)
# T2 sequence (Q8N163 1-461): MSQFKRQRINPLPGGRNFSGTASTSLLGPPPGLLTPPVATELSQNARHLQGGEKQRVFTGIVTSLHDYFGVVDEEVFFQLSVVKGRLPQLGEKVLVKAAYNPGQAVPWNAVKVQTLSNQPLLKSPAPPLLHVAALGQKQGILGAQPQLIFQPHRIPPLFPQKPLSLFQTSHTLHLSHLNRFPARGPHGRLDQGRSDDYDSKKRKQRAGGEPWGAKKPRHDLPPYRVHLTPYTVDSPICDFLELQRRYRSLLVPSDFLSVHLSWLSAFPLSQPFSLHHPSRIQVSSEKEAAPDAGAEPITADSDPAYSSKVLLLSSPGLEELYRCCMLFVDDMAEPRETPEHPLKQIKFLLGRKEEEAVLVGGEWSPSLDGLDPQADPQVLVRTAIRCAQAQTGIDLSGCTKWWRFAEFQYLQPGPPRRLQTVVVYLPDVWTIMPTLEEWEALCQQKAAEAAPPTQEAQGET
binder,measurement,setting,value
B1,binding result,His-DBC1,binds
same,binding result,[1],binds

# Source: paper PMC9377797, “Hypoxia-induced proteasomal degradation of DBC1 by SIAH2 in breast cancer progression” (eLife, 2022)
